{
  "source": "paper PMC9474862",
  "target": "APE1 WT (Homo sapiens) (UniProt P27695)",
  "sequence (P27695 whole entry)": "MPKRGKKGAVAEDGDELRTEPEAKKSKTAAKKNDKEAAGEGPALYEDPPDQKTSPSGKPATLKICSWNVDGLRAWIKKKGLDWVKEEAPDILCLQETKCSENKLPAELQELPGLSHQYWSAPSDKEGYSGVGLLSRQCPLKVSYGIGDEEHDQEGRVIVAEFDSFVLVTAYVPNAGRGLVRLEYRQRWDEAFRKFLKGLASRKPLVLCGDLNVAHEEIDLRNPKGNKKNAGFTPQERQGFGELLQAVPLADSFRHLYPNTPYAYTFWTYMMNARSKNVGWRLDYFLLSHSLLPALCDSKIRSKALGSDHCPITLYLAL",
  "assay": "EMSA",
  "settings": "apparent Kd, 1 mM EDTA, EMSA: 20 nM NCP, 10 mM HEPES pH 7.5, 25 mM NaCl, 1 mM DTT, 0.1 mg/mL BSA, 5% native PAGE, 0.2x TBE, 4 °C (gel), binding temperature not stated",
  "data": [
    {"sequence": "ATCGAGAATCCCGGTGCCGAGGCCGCTCAATTGGTCGTAGACAGCTCTAGCACCGCTTAAACGCACGTACGCGCTGTCCCCCGCGTTTTAACCGCCAAGGGGATTACTCCCTAGTCTCCAGGCACGTGTCAGATATATACATCCGAT (double strand) [ND-NCP]", "values": [
      {"measurement": "Kd", "setting": "nonspecific binding, no AP site", "value": 71, "unit": "nM"}
    ]},
    {"sequence": "ATCGAGAATCCCGGTGCCGAGGCCGCTCAATTGGTCGTAGACAGCTCTAGCACCGCTTAAACGCACGTACGCGCTGTCCCCCGCGTTTTAACCGCCAAGGGGATTACTCCCTAGTCTCCAGGCACGTGTCAGATATATACATNCGAT / ATCGGATGTATATATCTGACACGTGCCTGGAGACTAGGGAGTAATCCCCTTGGCGGTTAAAACGCGGGGGACAGCGCGTACGTGCGTTTAAGCGGTGCTAGAGCTGTCTACGACCAATTGAGCGGCCTCGGCACCGGGATTCTCGAT [AP-NCP-6.5]", "values": [
      {"measurement": "Kd", "setting": "one-site fit with ligand depletion, N in strand 1 = THF (AP site analog) at SHL-6.5, occluded", "value": 20, "unit": "nM"}
    ]},
    {"sequence": "ATCGAGAATCCCGGTGCCGAGGCCGCTCAATTGGTCGTAGACAGCTCTAGCACCGCTTAAACGCACGTACGCNCTGTCCCCCGCGTTTTAACCGCCAAGGGGATTACTCCCTAGTCTCCAGGCACGTGTCAGATATATACATCCGAT / ATCGGATGTATATATCTGACACGTGCCTGGAGACTAGGGAGTAATCCCCTTGGCGGTTAAAACGCGGGGGACAGCGCGTACGTGCGTTTAAGCGGTGCTAGAGCTGTCTACGACCAATTGAGCGGCCTCGGCACCGGGATTCTCGAT [AP-NCP0]", "values": [
      {"measurement": "Kd", "setting": "one-site fit with ligand depletion, N in strand 1 = THF (AP site analog) at SHL0 (dyad), occluded", "value": 20, "unit": "nM"}
    ]},
    {"sequence": "ATCGAGAATCCCGGTGCCGAGGCCGCTCAATTGGTCGTAGACAGCTCTAGCACCGCTTAAACGCACGTACGCGCTGTCCCCCGCGTTTTAACCGCCAAGGGGATTACTCCCTAGTCTCCAGGCACGTGTCAGATATATNCATCCGAT / ATCGGATGTATATATCTGACACGTGCCTGGAGACTAGGGAGTAATCCCCTTGGCGGTTAAAACGCGGGGGACAGCGCGTACGTGCGTTTAAGCGGTGCTAGAGCTGTCTACGACCAATTGAGCGGCCTCGGCACCGGGATTCTCGAT [AP-NCP-6]", "values": [
      {"measurement": "Kd", "setting": "one-site fit with ligand depletion, N in strand 1 = THF (AP site analog) at SHL-6, solvent-exposed", "value": 17, "unit": "nM"}
    ]}
  ]
}
